“And” between values parts separate entries of the source, which are not always exact repeats. Equal entries are not always repeated.
B1: dynamin-related protein 1 (Drp1) isoform 3, full-length human (enzyme, UniProt O00429-4 1-699, looked up)
chain: MEALIPVINKLQDVFNTVGADIIQLPQIVVVGTQSSGKSSVLESLVGRDLLPRGTGIVTRRPLILQLVHVSQEDKRKTTGEENGVEAEEWGKFLHTKNKLYTDFDEIRQEIENETERISGNNKGVSPEPIHLKIFSPNVVNLTLVDLPGMTKVPVGDQPKDIELQIRELILRFISNPNSIILAVTAANTDMATSEALKISREVDPDGRRTLAVITKLDLMDAGTDAMDVLMGRVIPVKLGIIGVVNRSQLDINNKKSVTDSIRDEYAFLQKKYPSLANRNGTKYLARTLNRLLMHHIRDCLPELKTRINVLAAQYQSLLNSYGEPVDDKSATLLQLITKFATEYCNTIEGTAKYIETSELCGGARICYIFHETFGRTLESVDPLGGLNTIDILTAIRNATGPRPALFVPEVSFELLVKRQIKRLEEPSLRCVELVHEEMQRIIQHCSNYSTQELLRFPKLHDAIVEVVTCLLRKRLPVTNEMVHNLVAIELAYINTKHPDFADACGLMNNNIEEQRRNRLARELPSAVSRDKVASGGGGVGDGVQEPTTGNWRGMLKTSKAEELLAEEKSKPIPIMPASPQKGHAVNLLDVPVPVARKLSAREQRDCEVIERLIKSYFLIVRKNIQDSVPKAVMHFLVNHVKDTLQSELVGQLYKSSLLDDLLTESEDMAQRRKEAADMLKALQGASQIIAEIRETHLW
notes: human dynamin-related protein 1 (Drp1), isoform 3, UniProt O00429-4, full length; CBP tag removed with PreScission protease; also called Drp1-3; WT; source: E. coli BL21 (DE3) Star, purified (calmodulin agarose, SEC)

Experiments:
[1] = target: Drp1 with deletion of the MoRF-1 sequence (human) (UniProt O00429); experiment: mass photometry; Drp1 in solution; molecular weight determined by mass photometry; conditions not given
[2] = target: the molecule itself; experiment: as above

| Molecule | stoichiometry N [1] | stoichiometry N [2] |
| --- | --- | --- |
| Drp1 with deletion of the MoRF-1 sequence (from UniProt O00429-4 1-699) (enzyme) | 2 |  |
| B1 |  | 2 and 4 and 6 |
